Source: the array DNA melting data of Ke et al.

Assay: melting temperature; melt of duplexes
Conditions: sodium 0.0675 M; strand 1 µM

CGACGTGCCAGATGTGCTG+CAGCACATCGCGCACGTCG ((((((((..(((((((((+)))))))))..))))))))
Tm: 55.4 °C

CGACGTGCAGCATGTGCTG+CAGCACATGCCGCACGTCG ((((((((.((((((((((+)))))))))).))))))))
Tm: 59.1 °C

CGACGTGCTGGATGTGCTG+CAGCACATACAGCACGTCG ((((((((((.((((((((+)))))))).))))))))))
Tm: 61.4 °C

CGACGTGCAGAATGTGCTG+CAGCACATCGAGCACGTCG ((((((((...((((((((+))))))))...))))))))
Tm: 50.3 °C

CGACGTGCAACATGTGCTG+CAGCACATCTGGCACGTCG ((((((((.(.((((((((+)))))))).).))))))))
Tm: 48.9 °C

CGACGTGCCGGATGTGCTG+CAGCACATTACGCACGTCG ((((((((...((((((((+))))))))...))))))))
Tm: 50.1 °C

CGACGTGCACAATGTGCTG+CAGCACATGCGGCACGTCG ((((((((...((((((((+))))))))...))))))))
Tm: 46.6 °C

CGACGTGCAAAATGTGCTG+CAGCACATGAAGCACGTCG ((((((((...((((((((+))))))))...))))))))
Tm: 53.7 °C

CGACGTGCTGGATGTGCTG+CAGCACATTGCGCACGTCG ((((((((...((((((((+))))))))...))))))))
Tm: 49.5 °C

CGACGTGCTCAATGTGCTG+CAGCACATGGGGCACGTCG ((((((((.(.((((((((+)))))))).).))))))))
Tm: 55 °C

CGACGTGCAAAATGTGCTG+CAGCACATACTGCACGTCG (((((((((..((((((((+))))))))..)))))))))
Tm: 50.4 °C

CGACGTGCCTCATGTGCTG+CAGCACATACAGCACGTCG ((((((((...((((((((+))))))))...))))))))
Tm: 48.3 °C

CGACGTGCAGAATGTGCTG+CAGCACATTGTGCACGTCG (((((((((.(((((((((+))))))))).)))))))))
Tm: 55.8 °C

CGACGTGCCAGATGTGCTG+CAGCACATATCGCACGTCG ((((((((.(.((((((((+)))))))).).))))))))
Tm: 49.1 °C

CGACGTGCCTCATGTGCTG+CAGCACATTTCGCACGTCG ((((((((...((((((((+))))))))...))))))))
Tm: 46.5 °C

CGACGTGCCCAATGTGCTG+CAGCACATGGGGCACGTCG ((((((((((.((((((((+)))))))).))))))))))
Tm: 61.3 °C

CGACGTGCGTTATGTGCTG+CAGCACATTCAGCACGTCG ((((((((...((((((((+))))))))...))))))))
Tm: 52.1 °C

CGACGTGCAGTATGTGCTG+CAGCACATGGAGCACGTCG ((((((((...((((((((+))))))))...))))))))
Tm: 50.6 °C

CGACGTGCGGGATGTGCTG+CAGCACATCCTGCACGTCG ((((((((.((((((((((+)))))))))).))))))))
Tm: 62.6 °C

CGACGTGCAGGATGTGCTG+CAGCACATGATGCACGTCG (((((((((..((((((((+))))))))..)))))))))
Tm: 55 °C

CGACGTGCGATATGTGCTG+CAGCACATCTCGCACGTCG ((((((((((.((((((((+)))))))).))))))))))
Tm: 57.2 °C

CGACGTGCACAATGTGCTG+CAGCACATTAAGCACGTCG ((((((((..(((((((((+)))))))))..))))))))
Tm: 49 °C

CGACGTGCATAATGTGCTG+CAGCACATTAGGCACGTCG ((((((((.((((((((((+)))))))))).))))))))
Tm: 57.7 °C

CGACGTGCTGGATGTGCTG+CAGCACATAAAGCACGTCG (((((((((..((((((((+))))))))..)))))))))
Tm: 55.3 °C

CGACGTGCTACATGTGCTG+CAGCACATCTTGCACGTCG ((((((((.(.((((((((+)))))))).).))))))))
Tm: 49.3 °C

CGACGTGCAGAATGTGCTG+CAGCACATGCAGCACGTCG ((((((((.(.((((((((+)))))))).).))))))))
Tm: 54.6 °C

CGACGTGCAGAATGTGCTG+CAGCACATAGGGCACGTCG ((((((((...((((((((+))))))))...))))))))
Tm: 49.2 °C

CGACGTGCCTTATGTGCTG+CAGCACATGATGCACGTCG ((((((((.(.((((((((+)))))))).).))))))))
Tm: 50.1 °C
